Results as given in IntAct's records for PubMed 18583962.

B1: LIM domain-binding protein 1 (Mus musculus), P70662 (parent)
chain: MSVGCACPGCSSKSFKLYSPKEPPNGNAFPPFHPGTMLDRDVGPTPMYPPTYLEPGIGRHTPYGNQTDYRIFELNKRLQNWTEECDNLWWDAFTTEFFEDDAMLTITFCLEDGPKRYTIGRTLIPRYFRSIFEGGATELYYVLKHPKEAFHSNFVSLDCDQGSMVTQHGKPMFTQVCVEGRLYLEFMFDDMMRIKTWHFSIRQHRELIPRSILAMHAQDPQMLDQLSKNITRCGLSNSTLNYLRLCVILEPMQELMSRHKTYSLSPRDCLKTCLFQKWQRMVAPPAEPARQQPSKRRKRKMSGGSTMSSGGGNTNNSNSKKKSPASTFALSSQVPDVMVVGEPTLMGGEFGDEDERLITRLENTQFDAANGIDDEDSFNNSPALGANSPWNSKPPSSQESKSENPTSQASQ
partner: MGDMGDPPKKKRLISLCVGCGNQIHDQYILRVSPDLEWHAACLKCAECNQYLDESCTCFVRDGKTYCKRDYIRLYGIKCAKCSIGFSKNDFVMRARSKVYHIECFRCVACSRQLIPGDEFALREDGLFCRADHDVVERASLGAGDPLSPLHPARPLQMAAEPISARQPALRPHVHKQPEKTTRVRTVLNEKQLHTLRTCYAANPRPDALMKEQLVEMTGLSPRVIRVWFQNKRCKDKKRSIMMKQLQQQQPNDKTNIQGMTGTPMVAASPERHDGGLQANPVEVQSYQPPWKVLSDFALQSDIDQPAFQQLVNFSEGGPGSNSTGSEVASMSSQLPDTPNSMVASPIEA
B2: Insulin gene enhancer protein ISL-1 (Mus musculus), P61372 (parent)
chain: B1 partner
partner: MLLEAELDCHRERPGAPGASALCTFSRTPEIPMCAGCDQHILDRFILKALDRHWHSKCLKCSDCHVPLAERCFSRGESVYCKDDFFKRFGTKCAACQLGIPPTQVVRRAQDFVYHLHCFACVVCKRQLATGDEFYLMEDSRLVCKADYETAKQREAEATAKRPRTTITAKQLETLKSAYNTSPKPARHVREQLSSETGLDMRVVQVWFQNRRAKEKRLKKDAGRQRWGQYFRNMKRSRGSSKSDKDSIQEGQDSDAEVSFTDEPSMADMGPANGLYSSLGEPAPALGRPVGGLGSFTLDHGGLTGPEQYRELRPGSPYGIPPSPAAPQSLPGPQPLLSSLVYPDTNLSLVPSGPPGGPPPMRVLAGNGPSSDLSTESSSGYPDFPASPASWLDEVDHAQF
B3: LIM domain-binding protein 1 (Mus musculus), P70662 (parent)
chain: B1 chain
partner: B2 partner

Variants of: B1
Settings: with isl1_mouse Isl1, P61372

Row | Variant | effect of a mutation on the interaction
1 | T359A;R360A;L361A | decreasing interaction

Variants of: B1
Settings: with isl1_mouse Isl1, P61372
Remark: another data set of the same source

Row | Variant | effect of a mutation on the interaction
2 | R356A;L357A;I358A | disrupting interaction

Variants of: B1
Settings: with isl1_mouse Isl1, P61372
Remark: another data set of the same source

Row | Variant | effect of a mutation on the interaction
3 | T359A | disrupting interaction

Variants of: B2
Settings: with lhx3_mouse Lhx3, P50481

Row | Variant | effect of a mutation on the interaction
4 | G262A | disrupting interaction
5 | T263A | disrupting interaction
6 | P264A | disrupting interaction

Variants of: B2
Settings: with lhx3_mouse Lhx3, P50481
Remark: another data set of the same source

Row | Variant | effect of a mutation on the interaction
7 | M265A | disrupting interaction

Variants of: B2
Settings: with lhx3_mouse Lhx3, P50481
Remark: another data set of the same source

Row | Variant | effect of a mutation on the interaction
8 | A267G | disrupting interaction

Variants of: B3
Settings: with lhx3_mouse Lhx3, P50481

Row | Variant | effect of a mutation on the interaction
9 | V339A | disrupting interaction

Variants of: B3
Settings: with lhx3_mouse Lhx3, P50481
Remark: another data set of the same source

Row | Variant | effect of a mutation on the interaction
10 | M338A | disrupting interaction
11 | I358A | disrupting interaction

Variants of: B3
Settings: with lhx3_mouse Lhx3, P50481
Remark: another data set of the same source

Row | Variant | effect of a mutation on the interaction
12 | L345A | disrupting interaction

Variants of: B3
Settings: with lhx3_mouse Lhx3, P50481
Remark: another data set of the same source

Row | Variant | effect of a mutation on the interaction
13 | T344A | disrupting interaction
